Key:
human α-thrombin [1] = biological target: T1, human α-thrombin (human, UniProt P00734 328-622); assay: inhibition of α-thrombin hydrolysis of Sar-Pro-Arg-paranitroanilide; Ki from Ki,app by the procedure of Bieth
human α-thrombin [2] = biological target: T1, human α-thrombin; assay: cell-based or functional assay

| Binder | Ki (human α-thrombin [1]) | peptide concentration giving significant prolongation (p<0.05) of the APTT of normal human plasma (human α-thrombin [2]) | peptide concentration giving significant prolongation (p<0.05) of the PT of normal human plasma (human α-thrombin [2]) | peptide concentration giving significant prolongation (p<0.05) of the TCT of normal human plasma (human α-thrombin [2]) |
| --- | --- | --- | --- | --- |
| RXPAF (HELM PEPTIDE1{[dR].[O=C([C@@H]1C[C@@H]2CCCC[C@@H]2N1[*:1])[*:2]].P.[dA].[O=C([C@H](Cc1ccc(I)cc1)N[*:1])[*:2]].[am]}$$$$V2.0; N-terminus assumed; SMILES C[C@@H](NC(=O)[C@@H]1CCCN1C(=O)[C@@H]1C[C@@H]2CCCC[C@@H]2N1C(=O)[C@H](N)CCCNC(=N)N)C(=O)N[C@@H](Cc1ccc(I)cc1)C(N)=O) [rOicPaF(p-I) (D-Arg-Oic-Pro-D-Ala-Phe(p-I))] | 6.4 µM | 25 µM | 6.25 µM | 0.78 µM |
| RXPAF (HELM PEPTIDE1{[dR].[O=C([C@@H]1C[C@@H]2CCCC[C@@H]2N1[*:1])[*:2]].P.[dA].[O=C([C@H](Cc1ccc(Br)cc1)N[*:1])[*:2]].[am]}$$$$V2.0; N-terminus assumed; SMILES C[C@@H](NC(=O)[C@@H]1CCCN1C(=O)[C@@H]1C[C@@H]2CCCC[C@@H]2N1C(=O)[C@H](N)CCCNC(=N)N)C(=O)N[C@@H](Cc1ccc(Br)cc1)C(N)=O) [rOicPaF(p-Br) (D-Arg-Oic-Pro-D-Ala-Phe(p-Br))] | 7.3 µM | 12.5 µM | 6.25 µM | 0.78 µM |
| RXPAF (HELM PEPTIDE1{[dR].[O=C([C@@H]1C[C@@H]2CCCC[C@@H]2N1[*:1])[*:2]].P.[dA].[Cc1ccc(C[C@H](N[*:1])C(=O)[*:2])cc1].[am]}$$$$V2.0; SMILES Cc1ccc(C[C@H](NC(=O)[C@@H](C)NC(=O)[C@@H]2CCCN2C(=O)[C@@H]2C[C@@H]3CCCC[C@@H]3N2C(=O)[C@H](N)CCCNC(=N)N)C(N)=O)cc1, also called H-r-Oic-P-a-F(p-Me)-NH2) [rOicPaF(p-Me) (D-Arg-Oic-Pro-D-Ala-Phe(p-Me))] | 6.6 µM | 1.56 µM | 1.56 µM | 0.78 µM |
| RXPSF (HELM PEPTIDE1{[dR].[O=C([C@@H]1C[C@@H]2CCCC[C@@H]2N1[*:1])[*:2]].P.[dS].[Cc1ccc(C[C@H](N[*:1])C(=O)[*:2])cc1].[am]}$$$$V2.0; N-terminus assumed; SMILES Cc1ccc(C[C@H](NC(=O)[C@@H](CO)NC(=O)[C@@H]2CCCN2C(=O)[C@@H]2C[C@@H]3CCCC[C@@H]3N2C(=O)[C@H](N)CCCNC(=N)N)C(N)=O)cc1) [rOicPsF(p-Me) (D-Arg-Oic-Pro-D-Ser-Phe(p-Me))] | 6.7 µM | 3.13 µM | 1.56 µM | 0.39 µM |

From patent US7879792 (REGENTS OF THE UNIVERSITY OF MICHIGAN, dated 2011)
